The results in this text go back to the Human Domainome abundance scans (Beltran et al. 2025).

B1: Tripartite motif-containing protein 49C, residues 87 to 133; numbered along this chain, P0CI26 (parent)
chain: SSEEQMCGTHRETKKIFCEVDRSLLCLLCSSSQEHRYHRHRPIEWAA

± gives the uncertainty stated by the source.

This data set covers variants of B1. Briefly: abundance fitness (aPCA) (normalised: wild type 0, dead -1); higher = more abundant; growth selection in yeast, the domain comes from the species named. As to conditions: Homo sapiens.
For the variant E12L, the abundance fitness is 0 ± 0.082.

As to E12Y, the abundance fitness was -0.092 ± 0.13.

Regarding E12I, the abundance fitness was -0.341 ± 0.17.

As for T13P, the abundance fitness stood at 0.313 ± 0.12.

Turning to T13A, the abundance fitness worked out at 0.168 ± 0.097.

In the case of T13V, the abundance fitness was -0.033 ± 0.085.

As for T13L, the abundance fitness was -0.21 ± 0.1.

For T13Q, the abundance fitness came to 0.148 ± 0.13.

As to C7M, the abundance fitness is -0.718 ± 0.27.

Regarding C7T, the abundance fitness was -0.861 ± 0.11.

On to C7A, for which the abundance fitness was -0.935 ± 0.17.

For C7I, the abundance fitness was -0.797 ± 0.11.

For S30K, the abundance fitness is -0.72 ± 0.19.

On to S30V, for which the abundance fitness was -0.257 ± 0.093.

Turning to S1V, the abundance fitness was -0.121 ± 0.22.

For the variant S1C, the abundance fitness is -0.79 ± 0.26.

D21H: the abundance fitness is -0.267 ± 0.37.

Take D21Q: the abundance fitness is 0.104 ± 0.1.

As for D21L, the abundance fitness is -0.573 ± 0.11.

On to D21C, for which the abundance fitness came to 0.149 ± 0.12.

For the variant H10C, the abundance fitness is -0.523 ± 0.12.

Turning to H10F, the abundance fitness was -1.07 ± 0.19.

Consider H10V, for which the abundance fitness is -0.788 ± 0.1.

In the case of H10Q, the abundance fitness was -0.757 ± 0.19.

Q33F: the abundance fitness was -0.237 ± 0.16.

With Q33I, the abundance fitness is 0.694 ± 0.3.

As for Q33H, the abundance fitness was -0.197 ± 0.19.

With Q33Y, the abundance fitness worked out at 0.159 ± 0.14.

Consider Q33M, for which the abundance fitness was -0.257 ± 0.13.

For Y37T, the abundance fitness worked out at 0.051 ± 0.074.

Take Y37E: the abundance fitness was 0.178 ± 0.15.

On to I16T, for which the abundance fitness is -0.399 ± 0.13.

With I16M, the abundance fitness is -0.107 ± 0.1.

For the variant I16N, the abundance fitness is -0.677 ± 0.19.

I16F: the abundance fitness is -0.325 ± 0.19.

As for I16H, the abundance fitness is -0.557 ± 0.3.

As for I16W, the abundance fitness is -0.28 ± 0.089.

For H38R, the abundance fitness is -0.591 ± 0.097.

For the variant H38E, the abundance fitness was -0.33 ± 0.092.

In the case of H38T, the abundance fitness is -0.599 ± 0.14.

Take H38A: the abundance fitness is -0.573 ± 0.085.

On to H38M, for which the abundance fitness is -0.717 ± 0.13.

Consider H38C, for which the abundance fitness was -0.836 ± 0.24.

As to H38Q, the abundance fitness is -0.562 ± 0.12.

In the case of A47P, the abundance fitness was 0.019 ± 0.13.

Consider A47N, for which the abundance fitness is -0.007 ± 0.28.

Take H35Q: the abundance fitness is -1.09 ± 0.22.

On to H35I, for which the abundance fitness is -0.882 ± 0.19.

Turning to H35Y, the abundance fitness is -1.06 ± 0.16.

As for H35L, the abundance fitness is -1.08 ± 0.14.

As for H35M, the abundance fitness is -0.916 ± 0.17.

As for V20R, the abundance fitness was -0.026 ± 0.078.

In the case of V20S, the abundance fitness was -0.07 ± 0.073.

For V20Q, the abundance fitness is 0.052 ± 0.11.

Take V20M: the abundance fitness was -0.007 ± 0.1.

For the variant R39V, the abundance fitness was -0.092 ± 0.076.

With R39D, the abundance fitness was 0.257 ± 0.12.

As to R39P, the abundance fitness was -0.246 ± 0.12.

On to R36D, for which the abundance fitness stood at 0.001 ± 0.14.

As for R36Q, the abundance fitness is -0.199 ± 0.12.

Take R36M: the abundance fitness was -0.301 ± 0.12.

On to E44Q, for which the abundance fitness was -0.489 ± 0.16.

With E44S, the abundance fitness is -0.089 ± 0.077.

On to E44T, for which the abundance fitness was -0.2 ± 0.1.

Take E44Y: the abundance fitness was -0.652 ± 0.15.

As to E44L, the abundance fitness was -0.52 ± 0.085.

Regarding E44I, the abundance fitness is -0.359 ± 0.16.

On to E44P, for which the abundance fitness was -0.449 ± 0.11.

For the variant I43R, the abundance fitness was -0.385 ± 0.18.

Regarding I43K, the abundance fitness amounted to 0.352 ± 0.27.

As for I43A, the abundance fitness stood at 0.405 ± 0.14.

I43V: the abundance fitness worked out at 0.023 ± 0.2.

Consider M6Y, for which the abundance fitness was -0.344 ± 0.16.

For the variant M6V, the abundance fitness is -0.21 ± 0.089.

As to M6H, the abundance fitness was -0.215 ± 0.19.

In the case of M6F, the abundance fitness is -0.769 ± 0.19.

Turning to L25M, the abundance fitness is -0.5 ± 0.2.

As for L25V, the abundance fitness is 0.103 ± 0.088.

As for L25K, the abundance fitness was -0.59 ± 0.21.

Consider L25I, for which the abundance fitness is -0.033 ± 0.4.

In the case of G8M, the abundance fitness was found to be 0.131 ± 0.096.

For the variant G8W, the abundance fitness was -0.199 ± 0.094.

With G8A, the abundance fitness was -0.005 ± 0.085.

Regarding G8F, the abundance fitness came to 0.229 ± 0.13.

For the variant G8S, the abundance fitness is -0.086 ± 0.089.

In the case of E3R, the abundance fitness was -0.213 ± 0.081.

On to E3A, for which the abundance fitness is 0.051 ± 0.1.

As for E3W, the abundance fitness is -0.156 ± 0.12.

As for E3C, the abundance fitness amounted to 0.068 ± 0.18.

With E3G, the abundance fitness was -0.147 ± 0.091.

With C26Y, the abundance fitness was -1.15 ± 0.24.

Turning to C26A, the abundance fitness was -0.891 ± 0.18.

For C26F, the abundance fitness was -0.901 ± 0.26.

As for C26D, the abundance fitness is -0.118 ± 0.29.

In the case of C26T, the abundance fitness is -1.05 ± 0.38.

Take H40Q: the abundance fitness is -0.129 ± 0.12.

Regarding H40W, the abundance fitness is -0.608 ± 0.11.

As to H40M, the abundance fitness was -0.633 ± 0.18.

On to P42R, for which the abundance fitness was -0.221 ± 0.078.

Regarding P42F, the abundance fitness is -0.289 ± 0.095.

Turning to P42V, the abundance fitness was -0.393 ± 0.099.

P42L: the abundance fitness was -0.324 ± 0.073.

Regarding Q5H, the abundance fitness is -0.315 ± 0.18.

With Q5N, the abundance fitness is -0.337 ± 0.16.

Turning to Q5A, the abundance fitness was -0.358 ± 0.1.

Regarding E4K, the abundance fitness was -0.502 ± 0.19.

For E4L, the abundance fitness is -0.278 ± 0.11.

For E4M, the abundance fitness was 0.015 ± 0.15.

On to E4H, for which the abundance fitness is -0.351 ± 0.18.

In the case of E4I, the abundance fitness was -0.142 ± 0.15.

Regarding E4V, the abundance fitness was -0.093 ± 0.097.

With E4A, the abundance fitness was -0.224 ± 0.13.

For the variant E4T, the abundance fitness was found to be 0.02 ± 0.14.

On to S32T, for which the abundance fitness was -0.278 ± 0.12.

In the case of S32P, the abundance fitness is -0.442 ± 0.14.

For the variant S32F, the abundance fitness was -0.465 ± 0.14.

Take R11S: the abundance fitness is -0.185 ± 0.097.

Turning to R11F, the abundance fitness was -0.613 ± 0.29.

With R11A, the abundance fitness was -0.134 ± 0.097.

R11W: the abundance fitness is -0.36 ± 0.1.

For the variant R11Q, the abundance fitness is -0.246 ± 0.14.

For the variant R22W, the abundance fitness is -0.504 ± 0.16.

Regarding R22M, the abundance fitness was -0.251 ± 0.15.

Turning to R22I, the abundance fitness is -0.588 ± 0.23.

R22K: the abundance fitness amounted to 0.22 ± 0.12.

Consider R22L, for which the abundance fitness was -0.327 ± 0.13.

Take R22G: the abundance fitness worked out at 0.174 ± 0.098.

Take L28E: the abundance fitness is 0.189 ± 0.12.

Turning to L28K, the abundance fitness worked out at 0.003 ± 0.14.

L28M: the abundance fitness was 0.024 ± 0.11.

Regarding L28D, the abundance fitness was -0.17 ± 0.27.

On to L28S, for which the abundance fitness turned out to be 0.12 ± 0.092.

As for T9P, the abundance fitness was -0.503 ± 0.1.

In the case of T9R, the abundance fitness was -0.078 ± 0.079.

For the variant T9G, the abundance fitness is -0.556 ± 0.091.

As for T9W, the abundance fitness was -0.339 ± 0.12.

Take S2I: the abundance fitness was -0.017 ± 0.14.

As for S2D, the abundance fitness was -0.354 ± 0.21.

With K15P, the abundance fitness was -0.79 ± 0.16.

On to K15M, for which the abundance fitness is -0.578 ± 0.15.

As for K15R, the abundance fitness is -0.415 ± 0.09.

Consider W45K, for which the abundance fitness is 0.518 ± 0.12.

Take W45S: the abundance fitness was 0.292 ± 0.077.

W45T: the abundance fitness is 0.345 ± 0.1.

With W45I, the abundance fitness is 0.12 ± 0.1.

Turning to C29I, the abundance fitness was -1.2 ± 0.36.

For the variant C29S, the abundance fitness is -1.06 ± 0.14.

Regarding C29F, the abundance fitness is -1.08 ± 0.2.

Take S23H: the abundance fitness was -0.277 ± 0.18.

S23F: the abundance fitness was -0.944 ± 0.2.

For the variant S23Q, the abundance fitness is -0.152 ± 0.15.

On to S23P, for which the abundance fitness was -0.686 ± 0.17.

Take S23K: the abundance fitness is -0.035 ± 0.15.

As for A46N, the abundance fitness was -0.124 ± 0.12.

As for A46I, the abundance fitness was -0.863 ± 0.28.

As for S31W, the abundance fitness turned out to be 0.015 ± 0.093.

S31D: the abundance fitness is -0.251 ± 0.14.

For the variant S31R, the abundance fitness was -0.017 ± 0.083.

On to S31M, for which the abundance fitness was -0.408 ± 0.15.

As to R41T, the abundance fitness was -0.292 ± 0.16.

In the case of R41K, the abundance fitness is -0.402 ± 0.47.

As to R41Q, the abundance fitness is 0.09 ± 0.15.

In the case of R41D, the abundance fitness was determined as 0.496 ± 0.39.

Consider E19F, for which the abundance fitness is -0.927 ± 0.26.

Turning to E19Q, the abundance fitness is -0.368 ± 0.15.

E19S: the abundance fitness was -0.452 ± 0.12.

On to E19I, for which the abundance fitness is -0.5 ± 0.21.
